{"source": "paper PMC2911679", "assay_in_all_cases": "AlphaScreen or HTRF", "key": {"[1]": {"molecular_target": "His6-tagged GFP–SRY-HMG R76P (SRY residues 55–141) (human) (UniProt Q05066)"}, "[2]": {"molecular_target": "His6-tagged GFP–SRY-HMG R76P (SRY residues 55–141) (human) (UniProt Q05066)", "remark": "listed apart in the source"}, "[3]": {"molecular_target": "His6-tagged GFP–SRY-HMG F67V (SRY residues 55–141) (human) (UniProt Q05066)"}, "[4]": {"molecular_target": "His6-tagged GFP–SRY-HMG M64T (SRY residues 55–141) (human) (UniProt Q05066)"}}, "note": "Where two headings read alike, the source gives them in different places."}
{"substance": "biotin-labelled calmodulin (CaM) (from UniProt P0DP23 1-149) (natural protein)", "values": [{"measurement": "Kd", "setting": "[1]", "result": 2.05, "unit": "nM"}, {"measurement": "Kd", "setting": "[2]", "result": 1.18, "unit": "nM"}, {"measurement": "Kd", "setting": "[3]", "result": 1.25, "unit": "nM"}, {"measurement": "Kd", "setting": "[4]", "result": 2.05, "unit": "nM"}]}
